Test: soluble on expression in E. coli; label from the status in PepcDB or PDB records

Sequence	soluble on expression in E. coli
MNTKYNKEFLLYLAGFVDGDGSIIAQIEPNQSYKFKHRLKLTFKVTQKTQRRWFLDKLVDEIGVGYVSDSGSVSNYILSEIKPLHNFLTQLQPFLKLKQKQANLVLKIIEQLPSAKESPDKFLEVCTWVDQIAALNDSKTRKTTSETVRAVLD	soluble
MSLTTSFQDTEFFENQIFNTGKYNCLILRTAMNVLREHANLDIVYGGRAIRQLIYETVDTISAMEGVDKKATWLKLISLCDQFRKTGQESLSLAEYTEDFNFESIALQVDAFSLFAKPHDFQVFSVFLEDSEKGKLATILSSLTQKFSNKSRFKICQALLERGQISSSSATELYDEFIQSKVDDTEAIDFQNRLAEVSLKTIREMIFSKTREEDTEMRTASDSSVSPFLRLNAISSLRDIKDAHEKILIDMAIIFLLFDPREETVELLNAIVKRLSSYAMLEHIFCTCFNDQGTELESHSLSKPENSVFWISVADKFPALKQLINGGDMAGAFDYLVEKLDKSYDEVILNVVIELLNRGNGEVVRKNYIKSLNPNRLIDRILIGLVYLLTDDVDNFRATFEDFAETLLLQNEQNKTDAPLEDRLNYKKEVSDLLNAVFASSSNPAAQKSNYYHTLFALAKSQAKVLRHRSHENIISPNSTSSAEAKFIKAALLFEQKAISYLKQVVKSEHLKFNLDDAYLNVYELGLYLQDYKSVYESLQNLSPVADEYDYNYLMKRYLSRLISQGSISTIFPPNDNKLYRDNYLLIDSVLLDLANNELVLASALTFYEYLYSWRLLGSATKVDPTELTDKRGAAEALYMFITRFKLEQPDLLSSTSEQSEDIKQYKLKVLELYLMILNCLQSFESIEDQWLVKSQTNDSLAVVKLNEITLEYYNWLKEIKDEEGHHHHHH	not soluble
MSLNETKQFIKRHLFSARWLVRNLQQRYSTIERIAEFLAVNQYEFFTQPDGQLKPLTMKTIADALELHESTIARTVSNKYINSPKGIFSLRSFFTTKYTSEEGEDLSAKTVKEAILEIISGENKLRPFSDEKISEFLKSKGITCARRTVAKYRQALDLGNTQQRKKFHQSEGHHHHHH	soluble
MLRPVETPTREIKKLDGLWAFSLDRENCGIDQRWWESALQESRAIAVPGSFNDQFADADIRNYAGNVWYQREVFIPKGWAGQRIVLRFDAVTHYGKVWVNNQEVMEHQGGYTPFEADVTPYVIAGKSVRITVCVNNELNWQTIPPGMVITDENGKKKQSYFHDFFNYAGIHRSVMLYTTPNTWVDDITVVTHVAQDCNHASVDWQVVANGDVSVELRDADQQVVATGQGTSGTLQVVNPHLWQPGEGYLYELCVTAKSQTECDIYPLRVGIRSVAVKGEQFLINHKPFYFTGFGRHEDADLRGKGFDNVLMVHDHALMDWIGANSYRTSHYPYAEEMLDWADEHGIVVIDETAAVGFNLSLGIGFEAGNKPKELYSEEAVNGETQQAHLQAIKELIARDKNHPSVVMWSIANEPDTRPQGAREYFAPLAEATRKLDPTRPITCVNVMFCDAHTDTISDLFDVLCLNRYYGWYVQSGDLETAEKVLEKELLAWQEKLHQPIIITEYGVDTLAGLHSMYTDMWSEEYQCAWLDMYHRVFDRVSAVVGEQVWNFADFATSQGILRVGGNKKGIFTRDRKPKSAAFLLQKRWTGMNFGEKPQQGGKQ	soluble
MAHHHHHHMSVPKAALMQIFDLYDTDRAGWIPTKRIPYVLRTCGMISTQTEMETLLHDHFASRDTVTRSGFQKFLEQKDILKAEDFSSEKELATAFQVFDSRESGALTSDEVLTILTRMNEKIDVDAYHRVMDGLELNEQGMVEFAKLAAHMLRSANEYKLTVRQVLEELAE	soluble
MAHHHHHHMLRRTSFNFTGRAMISRGSPEWSHRLDLKKGKKTTMMHKLGTSKPNNALQYAQMTLHDLTEWCLAYSPWPLTFGLACCAVEMMHAYASRYDLDRFGIVPRPTPRQAEIIIVSGTVTNKMAPILRNIYVQMVNPKWVISMGSCANGGGYYHFSYAVLRGCERAIPVDFWIPGCPPSAESLVFCLHTLQKKIRWHEIQKYSVRD	not soluble
MRLFECGTLVPGCAWHTRADDDAEVVRRTVDHMRSAHGETIIRENMIENIKSRIRDEANAA	not soluble
MGDTDRKLFVLDTNILLHEPFAIFSFQEHDVVIPMTVLEELDRIKDSKRDVARDARVAIRALEDLFKDATPDEISEGIPVSKEKPDQGSISILADFELQETVKAFADKAGDNRILNAVLYLQNKRAPREVVLITKDINMRLRAKGAGVRFVEDYRTDQLIDDIQYLTKGFQQREGDFWSGIDEVESYALGGKTYHKLSREPFDPTFINQYVIDEDSDFAGRVETINEDKLTLLDLSRERMMHRRAWDITPKNIYQAMALDALLDPDIDLVILTGAAGSGKTLLAMAAALEQTIEKGMFDKIIVTRNTPDIGESIGFLPGSEEEKMMPWLAAVTDTLEALHKHDHCTEGSLKYICDKANIQFKSINFMRGRSIQNAFVLLDECQNLTASQIKTIITRCGEGTKIVCSGNLAQIDSHYLTPVTSGLTYMVERFKNFEGSANIHLNGVVRSRLAEFAEENL	soluble
MDLRSALEKTNIIKSYKLHFLIRYTTSRFEVKEPFLAYLHMARQKDKLLPKCITPPNKKADPFTNDVSSYFTHTHTHTPCSPSLVYTYVNTTEKSPSKSPKHKNILPFNFTK	not soluble
MAHHHHHHMPGPGLLADGWFREENGQWPGQAMSFKVEEVLHDTPTKFQHLSIFETDPKGPWGTVMTLDGCIQLTDFDEFVYHEMLSHTPLCAHPDPVDVLIIGGGDGGVMREVLRHGTVKRCVLVDIDGDVIEASKKYFPQISSGFSDPRADVRVGDGVAFVREAASESFDVVIIDTTDPDGPAAELFGEKFYRDVLRILKPRGICCNQGESVWLNRNLIEGMADFIKNKVGFASVKYAMIYTPTYPCGSIGSLICSKVAGVDVTQPVRPVESMPFAGELKYYDSDVHKAAFVLPRFARHLNQNYS	soluble
MMKYTAVLDKPVTGNETTGSLPEPLLREALGAALRAFRADKGITLRELAETSRVSPGYLSELERGRKEVSSELLASVCHALGTSVSDVLIEAAGTMAMRSAEADLVRVS	not soluble
MNCESLLTALDVSTLLSTLSSPEKEHRRKRRRGEVANPSNTLDALVARKADDQPFEKRYLSEQEAIEGPDDEIEMKKMELDPDVSTRTCSTCGYQGKWVSEMIRHKRVHTSERPFKCRYCSRTSKWKADLIRHVAKTHGIRVVSKYSRSKVFDATNSSMDSSCSSDSDRCIISEKRTVFYRCQLCSFEDERVSVLNSHVSHLHNTSPCVCRCGAKFEDVQGALAHSNGPCSHVDMIYNVMPTYEKASPLSPCRSESSSDSGIQTDPEEEASIITSSLPTPQLGSSPLLLSPTLPVTPSFLPDIQSALLSLQPNPLMSLYLASLLQSSLLNSPTIPTSFPQIIPTTILTPSQQDEMVDVEM	not soluble
MLIYISLIMKMERLSMVILELYQNDYSKDLVAFDSIEDGKAFVAQIPGYTLETEDGFEVEYFNPKNIPDYMEIIFNGNIVPLSKFMFDPEENVNIIWKEISNLSLKNDRVIEGYSKIDAYVVNNHEVKAYVETRETNYRKAKDFLESRGYEIDRSFFGSEDGEAILYRKKGIEVWHFLCHLDPMFVEIEDVEGYVKEEVGEIQ	not soluble
MRDEDFCCAVCLDFFVEPCIIECGHSYCRFCIESHLNINEKCPLCRAHTGNPIRNRQLESLTMSYVSSRNISTEYYERMKSYQKKLLLQNRALVIIWTELNKRPGHSTELCNLVRNVQDEELKSEIMWQVKQQVGVGLEHTGDLQEENVTIRLKNSSSQQ	not soluble
MRIKLIIVEGKTDESFFKVLLEKLYGFREAKKLTPEFPIGKWGFRIGEHPLVLEKDNIALVIIHAEGKQRIPKVLKSVLDSVKLGLLNVEEVYVVRDVDEGNDVFEWVLSFLREREVRVDNGAIVTEGVKIYPYGMGNLTLNEPFVKEKKELELSLAYLAKLDGILEKYRGSMRALSQDKGDKLTPKDVMHILSIANDYTGDCLSGLYEKYIGIMIHRNRELLIRFLSEVNLLPLLERMVG	soluble
SGRHERDAFDTLFDHAPDKLNVVKKTLITFVNKHLNKLNLEVTELETQFADGVYLVLLMGLLEGYFVPLHSFFLTPDSFEQKVLNVSFAFELMQDGGLEKPKPRPEDIVNCDLKSTLRVLYNLFTKYRNVE	soluble
MGSDKIHHHHHHMKLIINADDFGFTRAINYGIIDAHNLGVLTSTTLMVTMPAFEHAVDLSKKTPTLGIGLHLNLTLGKPLTNGATLVNEDGELIKPKFTTPEYPYNEEEVYQEFKAQYHRFTEFMKKKPSHLDSHLFSTDIYPVVTSAAKRLAEEIGIPLRNHDTKGFEHVEFMWEKPLEIPYGEYDNLDYIYDNAASILCYDYVEIMTHPGYLDTFILENSTFSTPRANELESLISPRMRQFLNENNVELISYHDIPKK	not soluble
MQFEERLQQLVESDWSLDQSSPNVLVIVLGDTARKYVELGGLKEHVTTNTVAGHVASRERVSVVFLGRVKYLYMYLTRMQAQANGPQYSNVLVYGLWDLTATQDGPQQLRYLALCYGSASVCHLKLNSIQNRLLVACLPGYCDSGTILSDSCIVLHAIS	not soluble
MASRLNEDPEGSRITYVKGDLFACPKTDSLAHCISEDCRMGAGIAVLFKKRFGGVQELLSQQKKSGEVAVLKRDGRYIYYLITKKRASHKPTYENLQKSLEAMKSHCLKNGVTDLSMPRIGCGLDRLQWENVSAILEEVFESTDIKITVYTL	not soluble
MPEASHPDHLIRAGRLQADDARLFTPEADGPADQTPPDEPGWLVTLATWKAAAATLRARRHPVGVQLPPDARLDELTGPDGELDRAALSFIAIEFPVYTDGRGYSLAQLLRRRYGWDGELRAVGDVMIDTIHYQARVGFDSFLVKPGHDPQRALAAFRTFSVHYQHTYPAPLAA	not soluble
MRPGGYPKGVQARAWVEVDLAALWANYRLLAGRAGGEVIPVLKADAYGHGALPLARFLEGKGVGRFAVATLEEGRRLREGGIKGEVLLLGSLHPLEAEEALRLGLVPTLSNLEAAEALSQRARALGLVPRAHLKVDTGMNRVGFPSEEAVSALRAVEALGVRVEGVYTHLATAGEDAAFVETQRRRFQEVRRALGEGYFYHLENSLGLLRHGATAGVRVGLALYGLVPGFGLRPILRILARPTLVKRLKAGDRVGYGGVYVARGGEWLATLPVGYADGLPWGAVRFVKGPDGRLLEVAGRISMDQTTVLLPGPVGLEAVFEVLSADFGPTGLLAWAEARGTLPYEVAVHLSRRLPRRYLE	soluble
FNCNKREGPCSQRSLCECDPNLQLGRHSDQLWHYNLRTNRCERGGYRDNCNSHSSSGACVMACERIHHHHHH	soluble
MVFRCHYILVLEGFITQKNRLEHGGKDAGVEPPPYSNAAHHLTPWNDKRAIEAQELLKEFGIHHDSAANGVFLPYKVNEYVTTEVLHIGNHCTDYMKEVTKVLKEVKEYGGTQADAVAALHDIRIRLLDGSLKLNSPK	not soluble
MTKSLFRQSFLTDTLDVHIDVAPAEQVLSNGVQLKLYQRGVLEVIPENPTQETKNIIISCGIHGDETAPMELVDSIIKDIESGFQKVDARCLFIIAHPESTLAHTRFLEENLNRLFDEKEHEPTKELAIADTLKLLVRDFYQDTEPKTRWHLDLHCAIRGSKHYTFAVSPKTRHPVRSKALVDFLDSAHIEAVLLSNSPSSTFSWYSAENYSAQALTMELGRVARIGENALDRLTAFDLALRNLIAEAQPEHLSKPCIKYRVSRTIVRLHDDFDFMFDDNVENFTSFVHGEVFGHDGDKPLMAKNDNEAIVFPNRHVAIGQRAALMVCEVKTRFEEGELVYDLEHHHHHH	soluble

Reference: the DeepSol protein solubility set
